Reference: patent US20240011005A1 (HUIDAGENE THERAPEUTICS, published 2024)

How the values were obtained:
[1] = test system: T1, OsCas12f1 (ME-B.3) (Oscillibacter sp.); test: cell_activity
T1 sequence: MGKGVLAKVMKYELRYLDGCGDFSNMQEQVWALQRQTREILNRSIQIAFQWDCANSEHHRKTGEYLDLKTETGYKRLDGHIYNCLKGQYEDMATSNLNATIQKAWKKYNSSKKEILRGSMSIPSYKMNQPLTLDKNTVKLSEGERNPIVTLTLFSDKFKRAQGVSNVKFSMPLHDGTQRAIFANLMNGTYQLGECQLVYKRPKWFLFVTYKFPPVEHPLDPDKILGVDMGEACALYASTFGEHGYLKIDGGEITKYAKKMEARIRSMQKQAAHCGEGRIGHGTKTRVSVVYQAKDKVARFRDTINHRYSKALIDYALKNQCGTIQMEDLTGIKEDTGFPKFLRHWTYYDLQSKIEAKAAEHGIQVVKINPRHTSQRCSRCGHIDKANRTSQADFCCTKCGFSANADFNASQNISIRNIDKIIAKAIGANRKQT

[2] = test system: T2, RhCas12f1 (ME-A.1) (Ruminiclostridium herbifermentans); test: cell_activity; details: non-targeting spacer
T2 sequence: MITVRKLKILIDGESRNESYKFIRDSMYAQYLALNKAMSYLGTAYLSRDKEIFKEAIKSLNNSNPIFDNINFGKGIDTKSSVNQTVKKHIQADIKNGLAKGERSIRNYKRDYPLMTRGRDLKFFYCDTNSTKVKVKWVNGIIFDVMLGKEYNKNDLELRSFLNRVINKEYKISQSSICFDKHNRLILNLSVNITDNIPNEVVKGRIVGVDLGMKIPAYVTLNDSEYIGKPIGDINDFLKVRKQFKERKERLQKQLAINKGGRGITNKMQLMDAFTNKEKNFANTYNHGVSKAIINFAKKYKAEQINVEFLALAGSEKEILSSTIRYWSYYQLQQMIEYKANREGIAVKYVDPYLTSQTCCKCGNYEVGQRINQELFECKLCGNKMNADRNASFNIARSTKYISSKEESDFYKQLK

[3] = target: the molecule itself; test: size-exclusion chromatography (Superdex 200 Increase 10/300) of Cas12f1 RNP assembled with sgRNA; self-association (homodimer)

**Q.** Which binding signal (fold vs WT scaffold) ([1]; PAM TTTC) does the source give for “AGGGCCGACUUCCCGGCCCAAAAUCGAGACAGUAGCCGUAAAACUUUGAGUUUCAGAGUGGGCGACACACUCGAAAAGGUUAAGAUAUGCACAUAGUAAUCCGUGCAUGAGCCGCGAAAGCGGCUUGAAGGCCAUUACAGUAGGAGCAUACUUUUAUUUUUUU / TTTCCCATTACAGTAGGAGCATACGGG / CCCGTATGCTCCTACTGTAATGGGAAA” here?
**A.** 1.56

**Q.** For “ACGGUUGAUUUAGCAACCGAAGUCUGAGGGCAUGUAGAAAAAAGUAUAGGUAUAUACCAACAUACUUGCAUUGCCACUCGGAAAGGGUUAACCUUGGUCAUUGUGUUACCGACCAAGCAUUCCAGAAAUGGAAUGUAAAUGGGUCUUCGAGAAGACCUUUUUAUUUUUUU / CCCACCATTACAGTAGGAGCATAC / GTATGCTCCTACTGTAATGGTGGG”, which activity [2] is on record?
**A.** 0.62 % GFP+

**Q.** With “AGGGACGACUUCCCGUCCCAAAAUCGAGACAGUAGCCGUAAAACUUUGAGUUUCAGAGUGGGCGACACACUCGAAAAGGUUAAGAUAUGCACAUAGUAAUCCGUGCAUGAGCCGCGAAAGCGGCUUGAAGGGGGUCUUCGAGAAGACCUUUUUAUUUUUUU / TTTCCCATTACAGTAGGAGCATACGGG / CCCGTATGCTCCTACTGTAATGGGAAA” as the molecule, how does the activity ([1]; non-targeting spacer) read?
**A.** 0.55 % GFP+

B1: RhCas12f1 (ME-A.1) (enzyme)
chain: MITVRKLKILIDGESRNESYKFIRDSMYAQYLALNKAMSYLGTAYLSRDKEIFKEAIKSLNNSNPIFDNINFGKGIDTKSSVNQTVKKHIQADIKNGLAKGERSIRNYKRDYPLMTRGRDLKFFYCDTNSTKVKVKWVNGIIFDVMLGKEYNKNDLELRSFLNRVINKEYKISQSSICFDKHNRLILNLSVNITDNIPNEVVKGRIVGVDLGMKIPAYVTLNDSEYIGKPIGDINDFLKVRKQFKERKERLQKQLAINKGGRGITNKMQLMDAFTNKEKNFANTYNHGVSKAIINFAKKYKAEQINVEFLALAGSEKEILSSTIRYWSYYQLQQMIEYKANREGIAVKYVDPYLTSQTCCKCGNYEVGQRINQELFECKLCGNKMNADRNASFNIARSTKYISSKEESDFYKQLK
notes: Purified recombinant protein used in size-exclusion chromatography; Entered as the single polypeptide; also called WTRhCas12f1; Cas12f1 from Ruminiclostridium herbifermentans; not shown: C-terminal 6xHis tag
**Q.** Does B1 bind [3]?
**A.** binds

B2: OsCas12f1 (ME-B.3) (enzyme)
chain: MGKGVLAKVMKYELRYLDGCGDFSNMQEQVWALQRQTREILNRSIQIAFQWDCANSEHHRKTGEYLDLKTETGYKRLDGHIYNCLKGQYEDMATSNLNATIQKAWKKYNSSKKEILRGSMSIPSYKMNQPLTLDKNTVKLSEGERNPIVTLTLFSDKFKRAQGVSNVKFSMPLHDGTQRAIFANLMNGTYQLGECQLVYKRPKWFLFVTYKFPPVEHPLDPDKILGVDMGEACALYASTFGEHGYLKIDGGEITKYAKKMEARIRSMQKQAAHCGEGRIGHGTKTRVSVVYQAKDKVARFRDTINHRYSKALIDYALKNQCGTIQMEDLTGIKEDTGFPKFLRHWTYYDLQSKIEAKAAEHGIQVVKINPRHTSQRCSRCGHIDKANRTSQADFCCTKCGFSANADFNASQNISIRNIDKIIAKAIGANRKQT
notes: Purified recombinant protein used in size-exclusion chromatography; Entered as the single polypeptide; also called WTOsCas12f1; Cas12f1 from Oscillibacter sp; not shown: C-terminal 6xHis tag
**Q.** Does B2 bind [3]?
**A.** binds
